± gives the uncertainty stated by the source.
Test: self-splicing fitness, log relative to wild type (ln ratio); higher = more splicing; Tetrahymena group I intron in knt gene, E. coli kanamycin selection, DiMSum; sequences stand for … in CUCUCU…GGAGGGAAAAGUUAUCAGGCAUGCACCUGGUAGCUAGUCUUUAAACCAAUAGAUUGCAUCGGUUUAAAAGGCAAGACCGUCAAAUUGCGGGAAAGGGGUCAACAGCCGUUCAGUACCAAGUCUCAGGGGAAACUUUGAGAUGGCCUUGCAAAGGGUAUGGUAAUAAGCUGACGGACAUGGUCCUAACCACGCAGCCAAGUCCUAAGUCAACAGAUCUUCUGUUGAUAUGGAUGCAGUUCACAGACUAAAUGUCGGUCGGGGAAGAUGUAUUCUUCUCAUAAGAUAUAGUCGGACCUCUCCUUAAUGGGAGCUAGCGGAUGAAGUGAUGCAACACUGGAGCCGCUGGGAACUAAUUUGUAUGCGAAAGUAUAUUGAUUAGUUUUGGAGUACUCGUGGUCG
Procedure, shortened: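 Colonies from six replicate transformations of E. coli BL21(DE3) were pooled and amplicon-sequenced on an Illumina HiSeq 2500. The library placed an intron with all eight P1ex-region nucleotides randomised inside the knt kanamycin-resistance gene on pET-22b(+), and cells grew overnight at 37°C or 30°C on LB agar with or without 25 μg/mL kanamycin (plus 100 μg/mL carbenicillin, 50 μM IPTG, 0.2% rhamnose). Fitness is the DiMSum error-weighted combination of wild-type-normalised replicate fold changes, kanamycin versus none.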

Sequence | self-splicing fitness (ln) (30 °C) | self-splicing fitness (ln) (37 °C)
CGUGAGCAAUAUUACGGGCA | -1.6 ± 0.12 | -1.63 ± 0.16
CGUGAGCAAUAUUACGGGUC | -4 ± 0.24 | -2.2 ± 0.19
CGUGAGCAAUAUUACGUAAC | -3.13 ± 0.39 | -2.78 ± 0.43
CGUGAGCAAUAUUACGUCCA | -2.37 ± 0.26 | -2.38 ± 0.34
CGUGAGCAAUAUUACGUCUU | -2.26 ± 0.27 | 
CGUGAGCAAUAUUACGUGUA | -3.18 ± 0.22 | -3.91 ± 0.31
CGUGAGCAAUAUUACGUUCU | -2.74 ± 0.28 | -2.2 ± 0.27
CGUGAGCAAUAUUACGUUUC | -3.19 ± 0.23 | -2.23 ± 0.19
CGUUAGCAAUAUUACGAACG | -2.85 ± 0.3 | -2.62 ± 0.38
CGUUAGCAAUAUUACGACAA | -1.99 ± 0.17 | -1.15 ± 0.17
CGUUAGCAAUAUUACGAGGA | -2.48 ± 0.27 | -2.13 ± 0.27
CGUUAGCAAUAUUACGAUAC |  | -2.64 ± 0.44
CGUUAGCAAUAUUACGAUGC | -0.888 ± 0.21 | -1.63 ± 0.31
CGUUAGCAAUAUUACGAUUA | -2.16 ± 0.26 | -1.14 ± 0.22
CGUUAGCAAUAUUACGCCUU | -3.33 ± 0.43 | -2.18 ± 0.19
CGUUAGCAAUAUUACGCUGG | -1.45 ± 0.28 | -1.83 ± 0.31
CGUUAGCAAUAUUACGGCGA | -1.6 ± 0.11 | -1.61 ± 0.11

Sequence | self-splicing fitness (ln) (30 °C) | self-splicing fitness (ln) (37 °C)
CGUUAGCAAUAUUACGGGCC | -1.91 ± 0.18 | -1.75 ± 0.24
CGUUAGCAAUAUUACGGUAG | -0.514 ± 0.097 | -0.104 ± 0.11
CGUUAGCAAUAUUACGUAUU | -3.02 ± 0.18 | -2.64 ± 0.19
CGUUAGCAAUAUUACGUGAU | -3.16 ± 0.24 | -2.45 ± 0.2
CGUUAGCAAUAUUACGUGCG | -3.7 ± 0.14 | -2.71 ± 0.15
CUAAAGCAAUAUUACGAGAA | -2.99 ± 0.19 | -3.25 ± 0.33
CUAAAGCAAUAUUACGAUAG | 0.0858 ± 0.072 | 0.313 ± 0.085
CUAAAGCAAUAUUACGCACU | -3.41 ± 0.2 | -2.34 ± 0.32
CUAAAGCAAUAUUACGCAUU | -4.21 ± 0.21 | -1.51 ± 0.14
CUAAAGCAAUAUUACGCUAU | -4.21 ± 0.31 | -2.75 ± 0.3
CUAAAGCAAUAUUACGCUCG | -0.715 ± 0.12 | -0.626 ± 0.15
CUAAAGCAAUAUUACGCUGG | -3.74 ± 0.22 | -2.11 ± 0.25
CUAAAGCAAUAUUACGCUGU | -3.72 ± 0.29 | -2.39 ± 0.21
CUAAAGCAAUAUUACGGGGC | -2.86 ± 0.36 | -2.78 ± 0.28
CUAAAGCAAUAUUACGGUAC |  | -2.35 ± 0.25
CUAAAGCAAUAUUACGUAAG | -0.149 ± 0.07 | -0.575 ± 0.085
CUAAAGCAAUAUUACGUAAU | -4.33 ± 0.29 | -2.54 ± 0.23
